For orientation: Km means the substrate concentration at which the rate is half of its maximum. Broadly, the Vmax is the rate approached at saturating substrate. One may read the kcat as the number of substrate molecules converted per active site and unit of time at saturation.

First the molecules themselves.
B1: B3GLCTΔREEL (human B3GLCT without REEL motif) (Homo sapiens) (protein)
chain: SEDTKKEVKQSQDLEKSGISRKNDIDLKGIVFVIQSQSNSFHAKRAEQLKKSILKQAADLTQELPSVLLLHQLAKQEGAWTILPLLPHFSVTYSRNSSWIFFCEEETRIQIPKLLETLRRYDPSKEWFLGKALHDEEATIIHHYAFSENPTVFKYPDFAAGWALSIPLVNKLTKRLKSESLKSDFTIDLKHEIALYIWDKGGGPPLTPVPEFCTNDVDFYCATTFHSFLPLCRKPVKKKDIFVAVKTCKKFHGDRIPIVKQTWESQASLIEYYSDYTENSIPTVDLGIPNTDRGHCGKTFAILERFLNRSQDKTAWLVIVDDDTLISISRLQHLLSCYDSGEPVFLGERYGYGLGTGGYSYITGGGGMVFSREAVRRLLASKCRCYSNDAPDDMVLGMCFSGLGIPVTHSPLFHQARPVDYPKDYLSHQVPISFHKHWNIDPVKVYFTWLAPSDEDKARQETQKGF
notes: secreted from pSecTag2/HygroC, C-terminal Myc-His6 tag kept; native signal peptide replaced by vector signal; C-terminal ER-retention motif REEL (last 4 of 498 residues) removed; forward primer starts near SEDTKKEV; HEK293T medium, Ni-NTA
B2: B3GLCTΔREEL (human B3GLCT without REEL motif) (Homo sapiens; R337H) (protein)
chain: SEDTKKEVKQSQDLEKSGISRKNDIDLKGIVFVIQSQSNSFHAKRAEQLKKSILKQAADLTQELPSVLLLHQLAKQEGAWTILPLLPHFSVTYSRNSSWIFFCEEETRIQIPKLLETLRRYDPSKEWFLGKALHDEEATIIHHYAFSENPTVFKYPDFAAGWALSIPLVNKLTKRLKSESLKSDFTIDLKHEIALYIWDKGGGPPLTPVPEFCTNDVDFYCATTFHSFLPLCRKPVKKKDIFVAVKTCKKFHGDRIPIVKQTWESQASLIEYYSDYTENSIPTVDLGIPNTDRGHCGKTFAILERFLNHSQDKTAWLVIVDDDTLISISRLQHLLSCYDSGEPVFLGERYGYGLGTGGYSYITGGGGMVFSREAVRRLLASKCRCYSNDAPDDMVLGMCFSGLGIPVTHSPLFHQARPVDYPKDYLSHQVPISFHKHWNIDPVKVYFTWLAPSDEDKARQETQKGF
notes: as for B1
B3: B3GLCTΔREEL (human B3GLCT without REEL motif) (Homo sapiens; T179S) (protein)
chain: SEDTKKEVKQSQDLEKSGISRKNDIDLKGIVFVIQSQSNSFHAKRAEQLKKSILKQAADLTQELPSVLLLHQLAKQEGAWTILPLLPHFSVTYSRNSSWIFFCEEETRIQIPKLLETLRRYDPSKEWFLGKALHDEEATIIHHYAFSENPSVFKYPDFAAGWALSIPLVNKLTKRLKSESLKSDFTIDLKHEIALYIWDKGGGPPLTPVPEFCTNDVDFYCATTFHSFLPLCRKPVKKKDIFVAVKTCKKFHGDRIPIVKQTWESQASLIEYYSDYTENSIPTVDLGIPNTDRGHCGKTFAILERFLNRSQDKTAWLVIVDDDTLISISRLQHLLSCYDSGEPVFLGERYGYGLGTGGYSYITGGGGMVFSREAVRRLLASKCRCYSNDAPDDMVLGMCFSGLGIPVTHSPLFHQARPVDYPKDYLSHQVPISFHKHWNIDPVKVYFTWLAPSDEDKARQETQKGF
notes: as for B1
B4: B3GLCTΔREEL (human B3GLCT without REEL motif) (Homo sapiens; Q457R) (protein)
chain: SEDTKKEVKQSQDLEKSGISRKNDIDLKGIVFVIQSQSNSFHAKRAEQLKKSILKQAADLTQELPSVLLLHQLAKQEGAWTILPLLPHFSVTYSRNSSWIFFCEEETRIQIPKLLETLRRYDPSKEWFLGKALHDEEATIIHHYAFSENPTVFKYPDFAAGWALSIPLVNKLTKRLKSESLKSDFTIDLKHEIALYIWDKGGGPPLTPVPEFCTNDVDFYCATTFHSFLPLCRKPVKKKDIFVAVKTCKKFHGDRIPIVKQTWESQASLIEYYSDYTENSIPTVDLGIPNTDRGHCGKTFAILERFLNRSQDKTAWLVIVDDDTLISISRLQHLLSCYDSGEPVFLGERYGYGLGTGGYSYITGGGGMVFSREAVRRLLASKCRCYSNDAPDDMVLGMCFSGLGIPVTHSPLFHQARPVDYPKDYLSHRVPISFHKHWNIDPVKVYFTWLAPSDEDKARQETQKGF
notes: as for B1
B5: B3GLCTΔREEL (human B3GLCT without REEL motif) (Homo sapiens; V245M) (protein)
chain: SEDTKKEVKQSQDLEKSGISRKNDIDLKGIVFVIQSQSNSFHAKRAEQLKKSILKQAADLTQELPSVLLLHQLAKQEGAWTILPLLPHFSVTYSRNSSWIFFCEEETRIQIPKLLETLRRYDPSKEWFLGKALHDEEATIIHHYAFSENPTVFKYPDFAAGWALSIPLVNKLTKRLKSESLKSDFTIDLKHEIALYIWDKGGGPPLTPVPEFCTNDMDFYCATTFHSFLPLCRKPVKKKDIFVAVKTCKKFHGDRIPIVKQTWESQASLIEYYSDYTENSIPTVDLGIPNTDRGHCGKTFAILERFLNRSQDKTAWLVIVDDDTLISISRLQHLLSCYDSGEPVFLGERYGYGLGTGGYSYITGGGGMVFSREAVRRLLASKCRCYSNDAPDDMVLGMCFSGLGIPVTHSPLFHQARPVDYPKDYLSHQVPISFHKHWNIDPVKVYFTWLAPSDEDKARQETQKGF
notes: as for B1

The target of the first data set is O-fucosylated TSR3 from human thrombospondin-1 (Fuc-O-TSR3) (human).
Assay: not given
Details: not given
For the molecule “human B3GLCTΔREEL V245M (PTRPLS-like mutant) (from UniProt Q6Y288 1-498) (enzyme)”, the K (half) (μM) for the acceptor substrate Fuc-O-TSR3 in the in vitro glucosyltransferase assay (UDP-Glo; allosteric sigmoidal fit) came to 6.64 µM.
Same read-out and setting: the value for “human B3GLCTΔREEL T179S (PTRPLS-like mutant) (from UniProt Q6Y288 1-498) (enzyme)” was 8.04 µM; that for “human B3GLCTΔREEL Q457R (PTRPLS-like mutant) (from UniProt Q6Y288 1-498) (enzyme)” was 5.73 µM; that for “human B3GLCT with the REEL motif removed (B3GLCTΔREEL), wild type (from UniProt Q6Y288 1-498) (enzyme)” was 8.9 µM.
Still for that read-out and setting: the value for “human B3GLCTΔREEL R337H (PTRPLS-like mutant) (from UniProt Q6Y288 1-498) (enzyme)” was 6.65 µM.

Substrate in another data set: O=c1ccn([C@@H]2O[C@H](CO[P@@](=O)(O)O[P@@](=O)(O)O[C@H]3O[C@H](CO)[C@@H](O)[C@H](O)[C@H]3O)[C@@H](O)[C@H]2O)c(=O)[nH]1
Put plainly: UDP-Glo glycosyltransferase assay (UDP release, luminescence), Michaelis-Menten fit. In kind it is biochemical. Conditions: donor varied, acceptor Fuc-O-TSR3 (human thrombospondin-1 TSR3), 50 mM Tris/HCl pH 7.5, 37 °C, 20 min, no metal added. The source says:
UDP-Glo glycosyltransferase assay (UDP release, luminescence), Michaelis-Menten fit on B3GLCTΔREEL (human B3GLCT without REEL motif)
As for B1, the Km came out at 25.47 µM, the Vmax was found to be 0.0432 µmol/min/mg and the kcat was 0.0403 s⁻¹.
Regarding B2, the Km was determined as 21.89 µM, the Vmax worked out at 0.0277 µmol/min/mg and the kcat came to 0.0258 s⁻¹.
On to B3, for which the Km was 20.94 µM, the Vmax is 0.0324 µmol/min/mg and the kcat worked out at 0.0303 s⁻¹.
In the same order, the values of B4 are 17.39 µM, 0.0236 µmol/min/mg and 0.022 s⁻¹.
For B5, the Km stood at 18.74 µM, the Vmax was 0.0246 µmol/min/mg and the kcat was found to be 0.023 s⁻¹.

The values above are taken from PMC8233153, “Peters plus syndrome mutations affect the function and stability of human β1,3-glucosyltransferase” (The Journal of Biological Chemistry, 2021).
